Measured values: patent publication US7167802

Legend:
[1] = system: MK2 41-364 (unphosphorylated, constitutively active)
[2] = system: MK2 41-400 (unphosphorylated)
Chain of MK2 41-400 (unphosphorylated) (chain, as listed by the source): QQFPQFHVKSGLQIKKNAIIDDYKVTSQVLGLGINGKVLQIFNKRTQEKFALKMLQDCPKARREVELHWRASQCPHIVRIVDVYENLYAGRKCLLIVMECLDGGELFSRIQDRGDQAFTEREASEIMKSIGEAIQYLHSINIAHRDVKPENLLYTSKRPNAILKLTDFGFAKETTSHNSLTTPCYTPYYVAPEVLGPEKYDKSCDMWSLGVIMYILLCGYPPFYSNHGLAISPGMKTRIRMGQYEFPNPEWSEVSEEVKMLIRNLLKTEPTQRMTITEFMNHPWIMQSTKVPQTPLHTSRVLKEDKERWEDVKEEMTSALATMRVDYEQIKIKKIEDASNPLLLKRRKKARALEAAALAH

## Activated p38 MAP kinase
[1]
  Vmax of the MK2 construct after activation by p38 (0.076 without p38): 11 µmol/min/mg
[2]
  Vmax of the MK2 construct after activation by p38 (no activity without p38): 8.9 µmol/min/mg
